Series [1] deals with type II collagen.
For series [2], the system named is type VI collagen.
Series [3] concerns type III collagen.
The test system of series [4] is type I collagen.
Series [5] concerns type IV collagen.
Series [6] concerns N-(3[2-furyl]acryloyl)-Leu-Gly-Pro-Ala.
For series [7], the system named is fluorescently labeled type I collagen (FITC-collagen).
Series [8] relates to type V collagen.
The target of series [9] is type VI collagen. The source holds these as a separate data set.
Series [10] has as its target type V collagen. This is another data set of the same source.
Series [11] deals with type III collagen. This is another data set of the same source.
Series [12] has as its target T1, N-(3[2-furyl]acryloyl)-Leu-Gly-Pro-Ala.
T1 chain: LGPA

Series [13] deals with type I collagen. This is another data set of the same source.
Series [14] deals with type IV collagen. The source holds these as a separate data set.
In series [15] the target is type II collagen. This is another data set of the same source.
Series [16] concerns the target fluorescently labeled type I collagen (FITC-collagen). This is another data set of the same source.

Like-named read-outs stand apart in the source and are kept apart here.

4 molecules from patent US20170218352 can be followed below.

As to “collagenase derived from Clostridium histolyticum (manufactured by Roche Applied Science, trade name "Liberase C/T")”, the “disappearance of collagen bands on electrophoresis after incubation” value in series [1] is “This tendency was also similarly observed for the type II, type III, type IV, type V, and type VI collagens”; in [2], “the band does not disappear when the liberase is used”; in series [3], “This tendency was also similarly observed for the type II, type III, type IV, type V, and type VI collagens”; in [4], “the recombinant 62 kDa collagenase seems to more rapidly digest the type I collagen than liberase”; in [5], “the bands do not disappear when the liberase is used”; in series [8] it was “the bands do not disappear when the liberase is used”. For the same molecule, the Maximum rate was 0.2 mM/s in series [6] and 0.00016 mM/s in series [7]. Also, the Michaelis constant in series [6] was determined as 2.03 mM; in series [7], 0.0019 mM. The Molecular activity in series [6] amounted to 22.2 s⁻¹; in series [7], 18.7 s⁻¹. In addition, the Specific activity was 2.6 U/mg in series [6] and 1770 U/mg in series [7].

B1: recombinant 62 kDa collagenase (Grimontia hollisae-derived recombinant collagenase) (protein)
chain: AVEQCDLSQFQTTSSNQLMAAIRQQGASCVNALFSADTGVQEAAFSSNHMYNVAQYTRTLAQQYAGGGSDELEALYLYLRAGYYAEFYNSNITFLSWVTPAVKGAVDAFVQNAHFYDNGDAHGKVLNEVIITMDSAGLQHAYLDVVTQWLTRWNAQYAEHWYMRNAVNGVFTLLFGGQWNNQYTSLIGEQTALVTALQAFALDRTKVNSPTEFMAANAARELGRLARYTDATIAPKVTEGLTAIFGQYPSYGDGDAIWLGAADTASYYADCSQFNICGFEDALRDAALNQTFICSDTIKIRSQDMSQAQHLAACDKMAYEESFFHTTLETGNQPVADDHNTQLQVNIFNSDTDYGKYAGPIFGIDTNNGGMYLEGNPANVGNIPNFIAYEASYANPDHFVWNLEHEYVHYLDGRFNMYGDFGTPTELVVWWSEGVAEYVSRVNDNPQAIATIQDGSTYTLAQVFDTTYDGFDVDRIYRWGYLAVRFMFERHPDEVQRMLSATRQGRWAEYKAIISGWANQYQSEFAQWTEALAKGDSGAGNGEGTGSGNEGGGESGGNT
On to B1, for which the “disappearance of collagen bands on electrophoresis after incubation” value in series [9] was “the band become weaker when the recombinant 62 kDa collagenase is used to react for 72 hours”; in series [10], “the band become weaker when the recombinant 62 kDa collagenase is used to react for three hours or five hours”; in series [11] it was “This tendency was also similarly observed for the type II, type III, type IV, type V, and type VI collagens”; in series [13], “the recombinant 62 kDa collagenase seems to more rapidly digest the type I collagen than liberase”; in [14], “the band become weaker when the recombinant 62 kDa collagenase is used to react for three hours or five hours”; in [15], “This tendency was also similarly observed for the type II, type III, type IV, type V, and type VI collagens”. In addition, the Maximum rate came to 0.6 mM/s in series [12] and 0.00041 mM/s in [16]. The results for the Michaelis constant in [12] and in [16] were 2.28 mM and 0.0011 mM, respectively. The Molecular activity was 37.5 s⁻¹ in [12] and 25.1 s⁻¹ in series [16]. For the same molecule, the Specific activity in [12] was found to be 9.39 U/mg; in [16], 5490 U/mg. The “specific activity (from immediately after the purification to 24 hours)” value in series [16] is given as 12,000 (U/mg).

B2: 74 kDa collagenase (Grimontia hollisae-derived collagenase lacking the prepro region) (protein)
chain: AVEQCDLSQFQTTSSNQLMAAIRQQGASCVNALFSADTGVQEAAFSSNHMYNVAQYTRTLAQQYAGGGSDELEALYLYLRAGYYAEFYNSNITFLSWVTPAVKGAVDAFVQNAHFYDNGDAHGKVLNEVIITMDSAGLQHAYLDVVTQWLTRWNAQYAEHWYMRNAVNGVFTLLFGGQWNNQYTSLIGEQTALVTALQAFALDRTKVNSPTEFMAANAARELGRLARYTDATIAPKVTEGLTAIFGQYPSYGDGDAIWLGAADTASYYADCSQFNICGFEDALRDAALNQTFICSDTIKIRSQDMSQAQHLAACDKMAYEESFFHTTLETGNQPVADDHNTQLQVNIFNSDTDYGKYAGPIFGIDTNNGGMYLEGNPANVGNIPNFIAYEASYANPDHFVWNLEHEYVHYLDGRFNMYGDFGTPTELVVWWSEGVAEYVSRVNDNPQAIATIQDGSTYTLAQVFDTTYDGFDVDRIYRWGYLAVRFMFERHPDEVQRMLSATRQGRWAEYKAIISGWANQYQSEFAQWTEALAKGDSGAGNGEGTGSGNEGGGESGGNTGLPENCAVLPKISDGRLALDEAACLADTASASDVLWFSIPAVSEYQTIAITAGNGTGDLTLEYSNLNWPDGTNVQASSANMGNSECIILEHQANYWGYLKVSGSFENAALLVEAGSNQCRQ
As for B2, in series [16], the “specific activity (24 hours after the purification)” value is 11,500 (U/mg) and the “specific activity (immediately after the purification)” value is given as 18,000 (U/mg).

B3: recombinant 60 kDa collagenase (Grimontia hollisae-derived recombinant collagenase) (protein)
chain: AVEQCDLSQFQTTSSNQLMAAIRQQGASCVNALFSADTGVQEAAFSSNHMYNVAQYTRTLAQQYAGGGSDELEALYLYLRAGYYAEFYNSNITFLSWVTPAVKGAVDAFVQNAHFYDNGDAHGKVLNEVIITMDSAGLQHAYLDVVTQWLTRWNAQYAEHWYMRNAVNGVFTLLFGGQWNNQYTSLIGEQTALVTALQAFALDRTKVNSPTEFMAANAARELGRLARYTDATIAPKVTEGLTAIFGQYPSYGDGDAIWLGAADTASYYADCSQFNICGFEDALRDAALNQTFICSDTIKIRSQDMSQAQHLAACDKMAYEESFFHTTLETGNQPVADDHNTQLQVNIFNSDTDYGKYAGPIFGIDTNNGGMYLEGNPANVGNIPNFIAYEASYANPDHFVWNLEHEYVHYLDGRFNMYGDFGTPTELVVWWSEGVAEYVSRVNDNPQAIATIQDGSTYTLAQVFDTTYDGFDVDRIYRWGYLAVRFMFERHPDEVQRMLSATRQGRWAEYKAIISGWANQYQSEFAQWTEALAKGDS
As to B3, the “specific activity (from immediately after the purification to 24 hours)” value in series [16] was 12,000 (U/mg).
